In the supplement of paper PMC10567573:
± gives the standard deviation.

Test: protein stability index of a GFP-peptide fusion (GPS, HEK-293T) (PSI 1-6); higher = more stable
[1] = treatment: DMSO, c terminus: a fixed tail appended
[2] = treatment: MLN4924 1 uM, 8 h, c terminus: a fixed tail appended
[3] = treatment: DMSO, c terminus: native
[4] = treatment: MLN4924 1 uM, 8 h, c terminus: native
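Note: 24-mer peptide tiles fused after GFP, lentivirally expressed, FACS-sorted into six equal bins by GFP/DsRed ratio, decoded by Illumina sequencing, PSI is the read-weighted mean bin number.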

Sequence | protein stability index [1] | protein stability index [2] | protein stability index [3] | protein stability index [4]
FVMFLCLADYLVPILAPRIFGSNK [ARL6IP1] | 3.21 ± 0.48 | 3.17 ± 0.62 |  | 
RPKLSEEQQRIIAILLDAHHKTYD [VDR] | 2.58 ± 0.28 | 2.75 ± 0.41 |  | 
SSNFHINVEESVDGQVVSSHKREI [KRT15] | 4.7 ± 0.18 | 4.68 ± 0.18 |  | 
GSNGYILNKPALQAQPLRTTSTLA [EHMT1] | 3.59 ± 0.36 | 3.44 ± 0.17 |  | 
FLKNTEVSSMECEKNLYWICNKPY [CD69] | 2.32 ± 0.61 | 2.27 ± 0.21 |  | 
FFYPLVEDPYMMGRIACANVLSDL [SEPHS2] | 2.38 ± 0.46 | 2.19 ± 0.47 |  | 
ATLICMAMQASKATKITLSAIYKW [FOXJ1] | 3.15 ± 0.48 | 2.92 ± 0.71 |  | 
GSLDNAHHVPGGGNVKIDSQKLNF [MAP2] | 4.27 ± 0.18 | 4.43 ± 0.32 |  | 
FSLRVHTGCHKKLGPEARRPRTRW | 2.66 ± 0.28 | 3.06 ± 0.094 |  | 
VTQNSTAEPSRFSSSDSDFDDEEP [FCHO1] | 5.52 ± 0.25 | 5.55 ± 0.14 |  | 
LRKYSFDGLDLDWEYPGSQGSPAV [CHIT1] | 2.32 ± 0.23 | 2.61 ± 0.38 |  | 
LQLAIPRENAQISLDGDVTFFGAL [TNFSF13B] | 2.1 ± 0.32 | 2.17 ± 0.36 |  | 
PGGVYAGPEPPPVYTNLSSYSPAS [JUNB] | 3.94 ± 0.27 | 4.18 ± 0.41 |  | 
HKRPHVDFFLEVVSQWYELVVFTA [CTDNEP1] | 3.06 ± 0.76 | 2.77 ± 1.2 |  | 
SRISHLVLPVQPVSSIEEQGCLF [TOR1AIP2] |  |  | 2.63 ± 0.44 | 2.62 ± 0.22
MLASVESVPFSFDPNTAAGWLSVS [TRIM35] | 2.31 ± 0.22 | 2.33 ± 0.28 |  | 
NIEEIDEIPLVIKYKKAVGLKLKQ [WDR88] | 2.78 ± 0.19 | 2.91 ± 0.28 |  | 
YRFFKYIENRDVAKSVLKERGLKK [BTBD10] | 2.44 ± 0.25 | 2.52 ± 0.3 |  | 
GGRALVVRKVPPGYSIKVFDFERS [SMAD6] | 2.52 ± 0.33 | 2.37 ± 0.51 |  | 
DPGLGEGPALWLRSTCVYVCALSA [PLEKHN1] | 2.55 ± 0.045 | 2.09 ± 0.38 |  | 
DSMYGECRTYIIHYYLMDDTVEIR [EFHC1] | 2.35 ± 0.6 | 2.6 ± 0.69 |  | 
LGPLGSTAFLPDSKCLVDDGTGRM [GALNT9] | 3.89 ± 0.36 | 4.24 ± 0.21 |  | 
WSRNSKPVHTTILNPHIHLMGDES [CAMK2A] | 3.4 ± 0.28 | 3.53 ± 0.08 |  | 

Sequence | protein stability index [1] | protein stability index [2] | protein stability index [3] | protein stability index [4]
MDSKDVEVSSIQVRRKPQHGVCSQ [SERPINB9P1] | 4.47 ± 0.13 | 4.64 ± 0.22 |  | 
FQNAERAFKAAALIQRWYRRYVAR [PPEF2] |  | 5.54 ± 0.23 |  | 
ERPAQRDCSFPGLPRHQDQPHHQP [TRAF3IP2] | 4.72 ± 0.15 | 4.64 ± 0.28 |  | 
PYVSDGNFSNYYVAHPPVTYSQPY [TENT5C] | 2.55 ± 0.39 | 2.62 ± 0.38 |  | 
IRKTVKRLRKHQHVGDFARDLAAR [ELOA2] | 3.6 ± 0.23 | 3.69 ± 0.23 |  | 
LLSRFSVGIFHLMQIAVPCAFLLL [TMEM175] | 2.6 ± 0.35 | 2.24 ± 0.25 |  | 
ITQSWQVSVRVQPRGRAHLLPNPY [C22orf15] | 2.59 ± 0.83 | 3.36 ± 0.85 |  | 
TLQQFNIKLRPPGAEKPSWLEEQ [ARFIP2] |  |  | 3.55 ± 0.34 | 3.62 ± 0.35
KKDKCGRTPLHYAAANCHFHCIET [ANKRD44] | 2.5 ± 0.096 | 2.63 ± 0.29 |  | 
GHWTNVTPMATKRSGAGVALLNDH [KLHL12] | 3.48 ± 0.079 | 3.62 ± 0.085 |  | 
RAVLKYLYTGELDENERDLMHIAH [RHOBTB2] | 2.34 ± 0.13 | 2.49 ± 0.27 |  | 
EDQHRLYQQIKAGAYDFPSPEWDT [CAMK2D] | 4.36 ± 0.26 | 4.42 ± 0.21 |  | 
LLGAVNFFVSSINTLVTKTMEDTL [ARFIP2] | 3.13 ± 0.21 | 3.07 ± 0.26 |  | 
KGEYEVAEGIGSTVFRAILDYYKT [BTBD10] | 2.43 ± 0.4 | 2.35 ± 0.41 |  | 
TEYQKQLLAAQVQLQCSPAELQAE [FBF1] | 4.39 ± 0.31 | 4.3 ± 0.2 |  | 
IKRLVGSDQETLRIHERLVAGSLA [SLC25A25] | 2.74 ± 0.31 | 2.62 ± 0.18 |  | 
LSLASLLVYVAAFSIGLGPMPWLV [SLC2A12] | 2.93 ± 0.37 | 2.79 ± 0.68 |  | 
PAQRSHTYTHGLGLHRRPGAGHCS | 3.52 ± 0.12 | 3.46 ± 0.3 |  | 
PQQYMAFLPHHIMVKIFRLLPTKS [FBXO34] | 2.23 ± 0.38 | 2.07 ± 0.39 |  | 
LFGFSAVSIMYLVLVLAVQVHAWQ [JAGN1] | 3.8 ± 0.15 | 2.97 ± 0.39 |  | 
RVNKEHEHKLKVVRDQISHCTVKL [TRIM9] | 3.29 ± 0.31 | 3.39 ± 0.29 |  | 
KSSLIWSYPAGSLTFPVRPFFYTG [TRIM43] | 2.19 ± 0.26 | 2.08 ± 0.18 |  | 
KQQRNEVSFVIHNLPIIAKMAAVS [SEPHS2] | 2.51 ± 0.61 | 2.35 ± 0.36 |  | 

Sequence | protein stability index [1] | protein stability index [2] | protein stability index [3] | protein stability index [4]
DEDDVDQELANIDPTWIESPKTNG [SRPK2] | 5.23 ± 0.63 | 5.2 ± 0.36 |  | 
ALPEAPAPLLPHITATSLLGTRES [BCL2L13] | 4.67 ± 0.23 | 4.56 ± 0.16 |  | 
KASGKNKHFKVQLVDNVYCIGQRR [NCK2] | 3.06 ± 0.23 | 3.2 ± 0.16 |  | 
DDATLSRLELERKIESLMDEIEFL [PRPH] | 4 ± 0.23 | 3.88 ± 0.28 |  | 
NPAVRTAAANAAAGAAENAFRAP [SCAMP3] |  |  | 3.08 ± 0.69 | 3.36 ± 0.55
QQVKCIITEEKVCMVCKKKIGNSA [VPS39] | 3.24 ± 0.4 | 3.6 ± 0.66 |  | 
RMIFKLFSQETVMKFVPRYSLVLE [APMAP] | 2.74 ± 0.55 | 2.51 ± 0.37 |  | 
WYDMFRDAAAILLDEQNKRPCRKF [ZMAT5] | 2.35 ± 0.22 | 2.33 ± 0.44 |  | 
VTLRQVLAAKERHCGELKRRLGLS [TPD52L2] | 2.35 ± 0.28 | 2.67 ± 0.2 |  | 
SEGDLKNAIRVHHALATRASDYSK [PSD2] | 4.04 ± 0.11 | 4.22 ± 0.18 |  | 
LAPIHKLEEALYEYQPLQIETYGP [MNAT1] | 2.41 ± 0.46 | 2.71 ± 0.49 |  | 
QQLAAEPVPTGFFNMWGFGRVSKQ [WDR41] | 3.56 ± 0.35 | 3.49 ± 0.25 |  | 
LPGWEDIESKIPLNMEEPPVEEPE [SLC19A2] | 5.51 ± 0.32 | 5.24 ± 0.23 |  | 
DRGSCVSTTEGIQLAKELGATYLE [RHOBTB3] | 4.45 ± 0.14 | 4.47 ± 0.24 |  | 
GTPKDHDSPENGADSFESSDSLLQ [ETS2] | 5.46 ± 0.23 | 5.47 ± 0.23 |  | 
RLPRAIGMSLAKELIFSARVLDGK [AUH] | 1.83 ± 0.39 | 1.9 ± 0.2 |  | 
LLLLLPTLQSITWQMIEQIQFIKL [HNF4A] | 3.58 ± 0.39 | 3.28 ± 0.28 |  | 
SNPGPVPGSSSGPVLGSSSGAGHG [SPAG8] | 5.051 ± 0.027 | 4.7 ± 0.35 |  | 
KYLVEHKADLEVSNRHGHTCLMIS [FEM1C] | 2.53 ± 0.12 | 2.67 ± 0.23 |  | 
LEPGSADPLANGCQGVSEAAHRLA [PSD2] | 5.22 ± 0.075 | 5.23 ± 0.24 |  | 
LKDDIYIRYQSFNNQSDLEKEMQK [PRIM1] | 4.41 ± 0.08 | 4.27 ± 0.26 |  | 
AYVSPEILNTTGTYSGKAADVWSL [TRIB1] | 2.51 ± 0.3 | 2.37 ± 0.52 |  | 
WEEAAPGRAVEHAMFLGDAAAHWY [MYORG] | 3.05 ± 0.47 | 3.15 ± 0.22 |  | 

Sequence | protein stability index [1] | protein stability index [2] | protein stability index [3] | protein stability index [4]
LTQRQVNITVQKKVSQWWERLTKQ [HACD3] | 2.55 ± 0.33 | 2.81 ± 0.24 |  | 
KHSNSPPLVTPPQSPVSPQPPAIT [SMTNL2] | 4.82 ± 0.15 | 4.92 ± 0.15 |  | 
KARKTYERLVAQFPSSGRFWKLYI [CSTF3] | 2.57 ± 0.39 | 2.44 ± 0.35 |  | 
IRNSRPLVKKVEEDEAGGRFVAFS [UFD1] | 4.11 ± 0.15 | 4.05 ± 0.21 |  | 
MYLKQLAEYRKYIHSRKCRCLVM [RHOBTB3] |  |  | 1.95 ± 0.5 | 2 ± 0.33
VQTSVIGSNGYILNKPALQAQPLR [EHMT1] | 3.06 ± 0.34 | 3.17 ± 0.13 |  | 
ARIYEETLNILLYEAQDGRGPDNA [KCTD10] | 3.23 ± 0.28 | 3.04 ± 0.6 |  | 
DLCLLYPPFMIALACLHVACVVQQ [CCNC] | 3.11 ± 0.28 | 3.12 ± 0.24 |  | 
LPDGCQPLQLLREMRQALQALLKE [CBY2] | 2.45 ± 0.35 | 2.51 ± 0.33 |  | 
LEDKLRLLAQARDEAQGACLQQKQ [LRRC45] | 4.49 ± 0.33 | 4.19 ± 0.22 |  | 
KMFLRTREPALDGGFQMHYEKTPF [EID1] | 2.83 ± 0.25 | 3.05 ± 0.4 |  | 
LETEQGKPFVSVFRHLRLQYIISD [GMCL1] | 2.21 ± 0.56 | 2.05 ± 0.33 |  | 
QKRYHCKECGKVFSQSAGLIQHQR [ZSCAN9] | 3.3 ± 0.35 | 3.63 ± 0.63 |  | 
SPIKPGDIKRGIPNYEFKLGKITF [UFD1] | 2.65 ± 0.34 | 2.52 ± 0.39 |  | 
DWNEWRDYHLLHPVENIPEIILYW [SLC25A25] | 2.35 ± 0.51 | 2.2 ± 0.12 |  | 
NVLVDPSARIGQNCSIGPNVSLGP [GMPPB] | 3.61 ± 0.088 | 3.43 ± 0.25 |  | 
CFALIPKAPKKDVIKMLVNDNKVL [EFHC1] | 2.28 ± 0.44 | 2.43 ± 0.53 |  | 
IDEVLLHQDVDLVCINLPPPLTRQ [GFOD1] | 2.83 ± 0.38 | 2.98 ± 0.43 |  | 
FTKNNFFVEKNPTIVNFPITNVDL [USP39] | 2.98 ± 0.52 | 2.7 ± 0.29 |  | 
QVHRQGERRRELVRSQTLPRTSEA [SMTNL2] | 4.957 ± 0.024 | 4.98 ± 0.16 |  | 
